B1: Hammerhead Ribozyme (parent)
chain: ACCGGAUGUGCUUUCCGGUCUGAUGAGUCCGUGAGGACGAAACAG

Variants of: B1
Assay: self-cleavage, relative activity (ratio to wild type); higher = more cleavage; co-transcriptional

Variant	self-cleavage
ACCGGAUGUGCUUUCCGGUCUGAUGGGUCCGUGAGGCCGAAACAG	0.252
ACCGGAUGUGCUUUCCGGUCUGAUGGGUCCGUGAGGGCGAAACAG	0.424
ACCGGAUGUGCUUUCCGGUCUGAUGGGUCCGUGAGGUCGAAACAG	0.352
ACCGGAUGUGCUUUCCGGUCUGAUGCAUCCGUGAGGACGAAACAG	0.313
ACCGGAUGUGCUUUCCGGUCUGAUGCUUCCGUGAGGACGAAACAG	0.397
ACCGGAUGUGCUUUCCGGUCUGAUGCCUCCGUGAGGACGAAACAG	0.303
ACCGGAUGUGCUUUCCGGUCUGAUGCGUCCGUGUGGACGAAACAG	0.344
ACCGGAUGUGCUUUCCGGUCUGAUGCGUCCGUGCGGACGAAACAG	0.434
ACCGGAUGUGCUUUCCGGUCUGAUGCGUCCGUGGGGACGAAACAG	0.349
ACCGGAUGUGCUUUCCGGUCUGAUGCGUCCGUGAGGACGAACCAG	0.305
ACCGGAUGUGCUUUCCGGUCUGAUGCGUCCGUGAGGACGAAGCAG	0.371
ACCGGAUGUGCUUUCCGGUCUGAUGCGUCCGUGAGGACGAAUCAG	0.393
ACCGGAUGUGCUUUCCGGUCUGAUGCGUCCGUGAGGACGAAAAAG	0.349
ACCGGAUGUGCUUUCCGGUCUGAUGCGUCCGUGAGGACGAAAUAG	0.343
ACCGGAUGUGCUUUCCGGUCUGAUGCGUCCGUGAGGACGAAAGAG	0.31
ACCGGAUGUGCUUUCCGGUCUGAUGCGUCCGUGAGGACGAAACAA	0.304
ACCGGAUGUGCUUUCCGGUCUGAUGCGUCCGUGAGGACGAAACAU	0.45
ACCGGAUGUGCUUUCCGGUCUGAUGCGUCCGUGAGGACGAAACAC	0.398
ACCGGAUGUGCUUUCCGGUCUGAUGCGUCCGUGAGGACGAAACUG	0.344

Variant	self-cleavage
ACCGGAUGUGCUUUCCGGUCUGAUGCGUCCGUGAGGACGAAACCG	0.406
ACCGGAUGUGCUUUCCGGUCUGAUGCGUCCGUGAGGACGAAACGG	0.803
ACCGGAUGUGCUUUCCGGUCUGAUGCGUCCGUGAGGACGUAACAG	0.352
ACCGGAUGUGCUUUCCGGUCUGAUGCGUCCGUGAGGACGCAACAG	0.274
ACCGGAUGUGCUUUCCGGUCUGAUGCGUCCGUGAGGACGGAACAG	0.285
ACCGGAUGUGCUUUCCGGUCUGAUGCGCCCGUGAGGACGAAACAG	0.524
ACCGGAUGUGCUUUCCGGUCUGAUGCGACCGUGAGGACGAAACAG	0.572
ACCGGAUGUGCUUUCCGGUCUGAUGCGGCCGUGAGGACGAAACAG	0.46
ACCGGAUGUGCUUUCCGGUCUGAUGGGUCCGUGAGGACUAAACAG	0.343
ACCGGAUGUGCUUUCCGGUCUGAUGGGUCCGUGAGGACAAAACAG	0.368
ACCGGAUGUGCUUUCCGGUCUGAUGGGUCCGUGAGGACCAAACAG	0.309
ACCGGAUGUGCUUUCCGGUCUGAUGGGACCGUGAGGACGAAACAG	0.274
ACCGGAUGUGCUUUCCGGUCUGAUGGGUACGUGAGGACGAAACAG	0.402
ACCGGAUGUGCUUUCCGGUCUGAUGGGUGCGUGAGGACGAAACAG	0.283
ACCGGAUGUGCUUUCCGGUCUGAUGGGUUCGUGAGGACGAAACAG	0.365
ACCGGAUGUGCUUUCCGGUCUGAUGGGUCCGUGAGGACGAAAGAG	0.31
ACCGGAUGUGCUUUCCGGUCUGAUGGGUCCGUGAGGACGAAAUAG	0.285
ACCGGAUGUGCUUUCCGGUCUGAUGGGUCCGUGAGGACGAAAAAG	0.325
ACCGGAUGUGCUUUCCGGUCUGAUGGGUCCGUGAGUACGAAACAG	0.412

Variant	self-cleavage
ACCGGAUGUGCUUUCCGGUCUGAUGGGUCCGUGAGCACGAAACAG	0.307
ACCGGAUGUGCUUUCCGGUCUGAUGGGUCCGUGAGAACGAAACAG	0.319
ACCGGAUGUGCUUUCCGGUCUGAUGCGUCCAUGAGGACGAAACAG	0.687
ACCGGAUGUGCUUUCCGGUCUGAUGCGUCCUUGAGGACGAAACAG	0.727
ACCGGAUGUGCUUUCCGGUCUGAUGCGUCCCUGAGGACGAAACAG	0.411
ACCGGAUGUGCUUUCCGGUCUGAUGGGUCCGUGAGGACGAAGCAG	0.225
ACCGGAUGUGCUUUCCGGUCUGAUGGGUCCGUGAGGACGAACCAG	0.231
ACCGGAUGUGCUUUCCGGUCUGAUGGGUCCGUGAGGACGAAUCAG	0.286
ACCGGAUGUGCUUUCCGGUCUGAUGGGUCCGUGACGACGAAACAG	0.35
ACCGGAUGUGCUUUCCGGUCUGAUGGGUCCGUGAAGACGAAACAG	0.286
ACCGGAUGUGCUUUCCGGUCUGAUGGGUCCGUGAUGACGAAACAG	0.283
ACCGGAUGUGCUUUCCGGUCUGAUGGGUCCGUGAGGACGAAACAG	0.379
ACCGGAUGUGCUUUCCGGUCUGAUGCGUCCGUGAGGACGAAACAG	0.7
ACCGGAUGUGCUUUCCGGUCUGAUGGGUCCGUGAGGACGGAACAG	0.328
ACCGGAUGUGCUUUCCGGUCUGAUGGGUCCGUGAGGACGUAACAG	0.412
ACCGGAUGUGCUUUCCGGUCUGAUGGGUCCGUGAGGACGCAACAG	0.399
ACCGGAUGUGCUUUCCGGUCUGAUGCGUCGGUGAGGACGAAACAG	0.33
ACCGGAUGUGCUUUCCGGUCUGAUGCGUCAGUGAGGACGAAACAG	0.426
ACCGGAUGUGCUUUCCGGUCUGAUGCGUCUGUGAGGACGAAACAG	0.753

Source: the RNAGym collection of RNA variant scans (doi:10.7554/elife.80360)
